In US20090170751A1:

Target: Plasma fibronectin, affinity purified from human plasma (human) (UniProt P02751)
Test: cell-based or functional assay

Chain of Recombinant Anastellin, P02751 631-703 (P02751 other isoform, or with tags, fused parts or gaps limits assumed): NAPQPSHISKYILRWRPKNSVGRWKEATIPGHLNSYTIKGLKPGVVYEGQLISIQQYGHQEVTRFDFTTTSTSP
Chain of Plasma fibronectin, affinity purified from human plasma (human) (P02751 32-2477): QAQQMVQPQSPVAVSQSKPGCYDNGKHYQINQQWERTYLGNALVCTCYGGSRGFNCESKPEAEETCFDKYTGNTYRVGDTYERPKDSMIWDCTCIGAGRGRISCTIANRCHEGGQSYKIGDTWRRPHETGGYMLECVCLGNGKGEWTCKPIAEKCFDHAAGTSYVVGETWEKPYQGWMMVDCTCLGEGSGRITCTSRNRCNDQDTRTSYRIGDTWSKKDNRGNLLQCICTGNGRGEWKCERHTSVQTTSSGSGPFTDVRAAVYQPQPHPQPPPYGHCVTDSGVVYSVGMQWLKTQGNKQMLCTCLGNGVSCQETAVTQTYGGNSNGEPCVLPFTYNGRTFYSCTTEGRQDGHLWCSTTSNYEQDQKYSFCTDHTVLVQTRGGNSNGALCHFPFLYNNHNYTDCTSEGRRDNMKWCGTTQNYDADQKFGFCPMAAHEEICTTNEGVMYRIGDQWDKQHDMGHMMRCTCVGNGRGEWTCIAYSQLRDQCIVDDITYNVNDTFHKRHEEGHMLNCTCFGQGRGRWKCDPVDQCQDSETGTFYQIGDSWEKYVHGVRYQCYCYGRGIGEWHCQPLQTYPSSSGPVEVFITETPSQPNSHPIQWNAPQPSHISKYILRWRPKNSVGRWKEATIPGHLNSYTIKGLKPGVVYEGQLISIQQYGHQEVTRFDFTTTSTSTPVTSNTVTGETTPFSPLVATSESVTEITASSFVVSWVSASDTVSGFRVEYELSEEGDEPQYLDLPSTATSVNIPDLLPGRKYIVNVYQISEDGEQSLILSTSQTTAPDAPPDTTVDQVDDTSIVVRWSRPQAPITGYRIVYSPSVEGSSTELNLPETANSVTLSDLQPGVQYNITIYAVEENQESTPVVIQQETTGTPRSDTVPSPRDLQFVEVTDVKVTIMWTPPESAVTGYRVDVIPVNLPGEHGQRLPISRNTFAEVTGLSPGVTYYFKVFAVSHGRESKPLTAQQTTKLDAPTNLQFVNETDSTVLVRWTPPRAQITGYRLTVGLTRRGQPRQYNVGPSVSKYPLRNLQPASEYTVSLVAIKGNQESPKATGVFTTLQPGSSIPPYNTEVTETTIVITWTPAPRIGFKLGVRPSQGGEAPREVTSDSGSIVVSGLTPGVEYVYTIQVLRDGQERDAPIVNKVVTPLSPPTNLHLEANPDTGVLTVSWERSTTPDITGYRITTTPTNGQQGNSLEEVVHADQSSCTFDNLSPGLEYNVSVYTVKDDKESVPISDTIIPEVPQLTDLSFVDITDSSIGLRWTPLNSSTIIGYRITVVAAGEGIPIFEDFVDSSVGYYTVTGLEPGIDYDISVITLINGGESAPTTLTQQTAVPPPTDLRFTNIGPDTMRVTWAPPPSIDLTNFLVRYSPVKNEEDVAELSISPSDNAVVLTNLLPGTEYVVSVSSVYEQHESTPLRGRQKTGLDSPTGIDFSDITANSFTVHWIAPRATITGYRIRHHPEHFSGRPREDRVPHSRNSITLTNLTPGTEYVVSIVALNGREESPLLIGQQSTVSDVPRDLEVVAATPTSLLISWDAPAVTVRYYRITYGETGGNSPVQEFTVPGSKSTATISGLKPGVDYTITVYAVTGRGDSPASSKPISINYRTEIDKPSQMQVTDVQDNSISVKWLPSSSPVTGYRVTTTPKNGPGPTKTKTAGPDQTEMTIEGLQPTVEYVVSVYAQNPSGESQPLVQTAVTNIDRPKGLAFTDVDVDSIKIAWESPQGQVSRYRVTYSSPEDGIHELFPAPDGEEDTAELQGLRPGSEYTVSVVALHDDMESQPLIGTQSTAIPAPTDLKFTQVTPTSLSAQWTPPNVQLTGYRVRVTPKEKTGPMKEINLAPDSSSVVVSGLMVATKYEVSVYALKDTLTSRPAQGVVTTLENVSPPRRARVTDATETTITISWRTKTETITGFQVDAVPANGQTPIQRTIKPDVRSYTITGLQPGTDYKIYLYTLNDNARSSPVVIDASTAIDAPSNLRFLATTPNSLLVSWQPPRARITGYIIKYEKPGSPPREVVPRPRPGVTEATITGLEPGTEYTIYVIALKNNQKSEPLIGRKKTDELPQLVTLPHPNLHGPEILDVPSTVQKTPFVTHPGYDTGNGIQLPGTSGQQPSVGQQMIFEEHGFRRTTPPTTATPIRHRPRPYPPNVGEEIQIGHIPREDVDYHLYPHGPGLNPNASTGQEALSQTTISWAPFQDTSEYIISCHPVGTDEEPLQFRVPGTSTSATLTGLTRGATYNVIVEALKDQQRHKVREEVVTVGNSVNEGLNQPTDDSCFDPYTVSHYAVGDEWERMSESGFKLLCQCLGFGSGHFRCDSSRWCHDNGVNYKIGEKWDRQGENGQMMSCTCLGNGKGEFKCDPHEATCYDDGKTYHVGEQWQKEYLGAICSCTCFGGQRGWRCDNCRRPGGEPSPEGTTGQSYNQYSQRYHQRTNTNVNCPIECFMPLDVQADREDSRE

fibronectin aggregation, increase in absorbance at 600 nm: > 20 µM
Substance: Recombinant Anastellin, P02751 631-703
